This is an account of results in publication PMC4633281.

Assay [1] has as its target TamA with loop-His6 sequence (E. coli) (UniProt P0ADE4). As to the kind of experiment: magnetic contrast neutron reflectometry.
For assay [2], the target named is reconstituted TAM (TamA loop-His6 with purified TamB) in a supported membrane (E. coli) (UniProt P0ADE4). As to the kind of experiment: magnetic contrast neutron reflectometry.
The target in assay [3] is TamA with loop-His6 sequence (E. coli) (UniProt P0ADE4). As to the kind of experiment: quartz crystal microbalance with dissipation.

Consider “Ag43, urea-denatured, purified (from UniProt P39180 53-1039) (natural protein)”, for which, in assay [1], the surface excess of Ag43, fold over that with the complete TAM was 3 fold and the volume fraction of Ag43 in the membrane layer came out at 45%. This substance also came in with a volume fraction of Ag43 in the membrane layer in assay [2] of 11%.
For the substance “TamB, soluble, purified from the periplasm (domain or fragment)”, in assay [3], the decrease in frequency (QCM-D) amounted to 95 Hz and the frequency response (QCM-D) was determined as 30 Hz.
